# Data from paper PMC6317530.
# B1: ScOMPDC (yeast orotidine 5′-monophosphate decarboxylase) (Saccharomyces cerevisiae S288C; A160S/C155S/N267D/Q215A/S154A/S2H/Y217F) (protein)
# chain: MHKATYKERAATHPSPVAAKLFNIMHEKQTNLCASLDVRTTKELLELVEALGPKICLLKTHVDILTDFSMEGTVKPLKALSAKYNFLLFEDRKFADIGNTVKLQYSAGVYRIAEWADITNAHGVVGPGIVSGLKQAAEEVTKEPRGLLMLAELASKGSLSTGEYTKGTVDIAKSDKDFVIGFIAQRDMGGRDEGYDWLIMTPGVGLDDKGDALGAQFRTVDDVVSTGSDIIIVGRGLFAKGRDAKVEGERYRKAGWEAYLRRCGQQD
# Substrate: O=C(O)c1cc(=O)[nH]c(=O)n1[C@@H]1O[C@H](COP(=O)(O)O)[C@@H](O)[C@H]1O
# Assay: purified protein
# Conditions: pH 7.1 (10 mM MOPS), 25 °C, I = 0.105 (NaCl)
protein,measurement,value
B1,Km,1500 ± 50 µM
